For this data set, the target named is NF-κB p65 (RelA) homodimer (UniProt Q04206 Q04206:1-551). Kind of data set: competition; inhibition/binding similar to unsubstituted aptamer; 32P IgκB competition. The note with it: protein: NAME; chain copies: 2 (stated). Here is the method:
As the substitutions of dithiophosphate were increased, binding by the [S₂]-ODN oligonucleotide increased dramatically. For example, in a standard competitive binding assay, ³²P IgκB promoter element ODN is incubated with recombinant p65 and varying amounts of XBY aptamer competitor. The relative binding ability of the unlabeled ODNs is determined by the concentration needed to effectively compete with the standard labeled ODN. XBY1 through 6 correspond to CK-14 aptamers with 1 through 6 dithiophosphate substitutions, respectively. The present inventors, according to an embodiment of this invention, developed an oligonucleotide containing six dithioate linkages on the two strands, termed XBY-6. Unlike the fully substituted [S]-ODN CK-14, the XBY-6 hybrid backbone [S₂]-ODN aptamers bound more tightly to p50/p50 (5-fold) than to the p65 homodimer.

Sequence of NF-κB p65 (RelA) homodimer (Q04206 whole entry, one chain of several): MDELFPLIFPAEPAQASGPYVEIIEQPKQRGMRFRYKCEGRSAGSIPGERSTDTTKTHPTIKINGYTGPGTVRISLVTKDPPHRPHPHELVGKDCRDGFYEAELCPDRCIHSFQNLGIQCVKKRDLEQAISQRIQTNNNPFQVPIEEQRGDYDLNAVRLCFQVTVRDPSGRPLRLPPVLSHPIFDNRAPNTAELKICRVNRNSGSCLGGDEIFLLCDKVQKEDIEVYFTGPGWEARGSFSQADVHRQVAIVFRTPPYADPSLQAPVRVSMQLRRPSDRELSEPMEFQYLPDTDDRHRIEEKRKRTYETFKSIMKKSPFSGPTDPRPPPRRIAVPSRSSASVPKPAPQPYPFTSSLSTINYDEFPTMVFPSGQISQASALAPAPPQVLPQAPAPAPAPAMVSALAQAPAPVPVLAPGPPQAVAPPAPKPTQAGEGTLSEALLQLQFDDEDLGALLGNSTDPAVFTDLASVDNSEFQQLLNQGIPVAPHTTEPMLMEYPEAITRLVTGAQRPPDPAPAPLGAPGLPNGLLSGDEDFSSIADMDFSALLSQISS

B1: CK-14 with one or two dithioate linkages (XBY1, XBY2) (dsDNA)
DNA 1: CCAGGAGATTCCAC
DNA 2: GTGGAATCTCCTGG
modifications: 1 or 2 phosphorodithioates, positions not given
For the molecule B1, the binding signal was around 1 fold vs unsubstituted.

Values taken from patent US20050118611, “Thioaptamers enable discovery of physiological pathways and new therapeutic strategies” (Board Of Regents, The University of Texas System, published 2005).
